Residue numbers refer to the chain shown, from its start. Names may count otherwise.
B1: wt-L2 lipase (Bacillus sp. L2) (protein)
chain: ASLRANDAPIVLLHGFTGWGREEMFGFKYWGGVRGDIEQWLNDNGYRTYTLAVGPLSSNWDRACEAYAQLVGGTVDYGAAHAAKHGHARFGRTYPGLLPELKRGGRIHIIAHSQGGQTARMLVSLLENGSQEEREYAKAHNVSLSPLFEGGHHFVLSVTTIATPHDGTTLVNMVDFTDRFFDLQKAVLEAAAVASNVPYTSQVYDFKLDQWGLRRQPGESFDHYFERLKRSPVWTSTDTARYDLSVSGAEKLNQWVQASPNTYYLSFSTERTYRGALTGNHYPELGMNAFSAVVCAPFLGSYRNPTLGIDDRWLENDGIVNTVSMNGPKRGSSDRIVPYDGTLKKGVWNDMGTYNVDHLEIIGVDPNPSFDIRAFYLRLAEQLASLLP
notes: recombinant from pET32(B)+ in E. coli BL21(DE3), Ni Sepharose purified
B2: wt-L2 lipase (Bacillus sp. L2; A36V) (protein)
chain: B1 chain with A8V
notes: as for B1
B3: wt-L2 lipase (Bacillus sp. L2; A36P) (protein)
chain: B1 chain with A8P
notes: as for B1
B4: wt-L2 lipase (Bacillus sp. L2; A36E) (protein)
chain: B1 chain with A8E
notes: as for B1

Substrate: CCCCCCCCCC(=O)Oc1ccc([N+](=O)[O-])cc1
Assay: pNP ester hydrolysis, Lineweaver-Burk
Assay type: biochemical, Bacillus sp. L2
Conditions: 70 °C (optimum temperature), 0.6-5.0 mM substrate
Excerpt: pNP ester hydrolysis, Lineweaver-Burk on wt-L2 lipase

| Protein | Km | kcat | kcat/Km | Vmax |
| --- | --- | --- | --- | --- |
| B1 | 1080 µM | 175 s⁻¹ | 162000 M⁻¹ s⁻¹ |  |
| B2 | 520 µM | 136 s⁻¹ | 207000 M⁻¹ s⁻¹ | 81300 µM/min |
| B3 | 1340 µM | 127 s⁻¹ | 94900 M⁻¹ s⁻¹ | 76300 µM/min |
| B4 | 4380 µM | 120 s⁻¹ | 27200 M⁻¹ s⁻¹ | 71900 µM/min |
